Legend:
Details in all cases: SPR per cited protocol (Gsaller 2016; buffer not given), CBC 3.13-200 nM, 1:1 model with mass transport; SEC: 20 mM Tris/HCl, 150 mM NaCl, 1 mM DTT, pH 7.5
[1] = biological target: Afu_CBC HapE P88L (SPR co-injection construct);HapX bZIP peptide P88L (Aspergillus fumigatus;Aspergillus fumigatus) (UniProt Q4WDM9+Q4WER3); assay: SPR co-injection
[2] = biological target: Afu_CBC HapE P88L (core) P88L (Aspergillus fumigatus) (UniProt Q4WDM9); assay: SPR
[3] = biological target: An_CBC HapE P88L (Aspergillus nidulans) (UniProt G5EAZ0+Q5B5Z6+Q5AYY8); assay: SPR
[4] = biological target: An_CBC wt (HapB/HapC/HapE core) (Aspergillus nidulans) (UniProt G5EAZ0+Q5B5Z6+Q5AYY8); assay: SPR

AAATCCACCAATCAACGCCTCCGTGATTGTCAGCAAT (double strand) [Afu_cccA SPR co-injection duplex (CBC and HapX sites)]
binding signal (fold half-life vs binary P88L CBC-DNA) [1]: 7

AAATCCACCAATCAACGCCTCCGTG (double strand) [Afu_cccA 25 bp SPR duplex]
Kd [2]: 429 nM

GAATTGACCAATCAGAGGTAGGATG (double strand) [An_cycA 25 bp SPR duplex]
Kd [2]: 100 nM
Kd [3]: 116 nM
Kd [4]: 0.83 nM

ACCCGAGCCAATCAGAGCGAAGTGA (double strand) [An_cccA 25 bp SPR duplex]
Kd [2]: 2000 nM
Kd [3]: 2000 nM
